Laboratory results published in patent publication US20080206268A1.

Experiments:
[1] = target: HLA-B60 on HLA typed EBV-LCLs (human); test: cell-based competition on acid-treated EBV-LCLs against 150 nM fluorescent reference peptide, flow cytometry
[2] = target: HLA-B60 on HLA typed EBV-LCLs (human); test: cell-based competition assay, flow cytometry
[3] = target: HLA-A2 on HLA typed EBV-LCLs (human); test: cell-based competition on acid-treated EBV-LCLs against 150 nM fluorescent reference peptide, flow cytometry; conditions: remark: other sources report otherwise
[4] = target: HLA-A3 on HLA typed EBV-LCLs (human); test: as above
[5] = target: HLA-B60 on HLA typed EBV-LCLs (human); test: as above; remark: listed apart in the source
[6] = target: HLA-B60 on HLA typed EBV-LCLs (human); test: cell-based competition assay, flow cytometry; remark: listed apart in the source
[7] = target: recombinant HLA-A2.1 protein and b2-microglobulin (human); test: cell-free competition assay on recombinant HLA-A2.1, against HA-1^H peptide [..] as reference; conditions: remark: other sources report otherwise

## KECVLHDDL (modifications not checked) [nonameric HA-1^H peptide …]
[1]
  IC50: 5.3 µM
[2]
  IC50: 1.6 to 5.3 µM

## VLHDDLLEA [HA-1^H peptide …]
[3]
  IC50: 6.4 µM

## VLHDDLLEAR (modifications not checked)
[4]
  IC50: 15.6 µM

## KECVLRDDLL [decameric HA-1^R peptide …]
[5]
  IC50: 1.6 µM
[6]
  IC50: 1.6 to 5.3 µM

## VLRDDLLEA [HA-1^R peptide …]
[7]
  fold lower binding affinity than the HA-1^H peptide: 10 fold

## KESTLHLVL [HLA-B60 binder-positive control peptide …]
[5]
  IC50: 1.1 µM

## KECVLHDDLL
[5]
  IC50: 1 µM
